Measured values taken from PMC9753469 (2022).

B1: MBP-KRAB (ZNF93 KRAB, wild type) (domain or fragment)
chain: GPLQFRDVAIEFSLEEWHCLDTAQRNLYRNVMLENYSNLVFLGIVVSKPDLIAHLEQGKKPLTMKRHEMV
B2: MBP-KRAB (ZNF93 KRAB E35R) (domain or fragment)
chain: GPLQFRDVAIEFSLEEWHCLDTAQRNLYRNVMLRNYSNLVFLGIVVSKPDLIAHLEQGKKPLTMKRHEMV

Columns and labels:
[1] = target: T1, KAP1 RBCC R311E, SPR analyte (human (by the printed UniProt entry), UniProt Q13263 1-835, R311E); experiment: SPR; major phase
[2] = target: T1, KAP1 RBCC R311E, SPR analyte; experiment: SPR
[3] = target: T1, KAP1 RBCC R311E, SPR analyte; experiment: SPR; major phase; remark: listed apart in the source
[4] = target: T1, KAP1 RBCC R311E, SPR analyte; experiment: SPR; minor phase
[5] = target: B1; experiment: SPR; minor phase
[6] = target: B1; experiment: SPR; major phase
[7] = target: B2; experiment: SPR; major phase
[8] = target: B1; experiment: SPR; minor phase; remark: listed apart in the source
[9] = target: B2; experiment: SPR; minor phase

Kd [1] | Kd [2] | koff [3] | Kd [4] | koff [5] | koff [6] | koff [7] | Kd [8] | Kd [9] | Binder
0.029 µM | 0.029 µM | 0.00083 s⁻¹ | 2 µM |  |  |  |  |  | B1
 |  |  |  | 0.0061 s⁻¹ | 0.000232 s⁻¹ | 0.008 s⁻¹ | 19 µM | 47 µM | KAP1 RBCC (wild type), SPR analyte (domain or fragment) SPAGGGAEALELLEHCGVCRERLRPEREPRLLPCLHSACSACLGPAAPAAANSSGDGGAAGDGTVVDCPVCKQQCFSKDIVENYFMRDSGSKAATDAQDANQCCTSCEDNAPATSYCVECSEPLCETCVEAHQRVKYTKDHTVRSTGPAKSRDGERTVYCNVHKHEPLVLFCESCDTLTCRDCQLNAHKDHQYQFLEDAVRNQRKLLASLVKRLGDKHATLQKSTKEVRSSIRQVSDVQKRVQVDVKMAILQIMKELNKRGRVLVNDAQKVTEGQQERLERQHWTMTKIQKHQEHILRFASWALESDNNTALLLSKKLIYFQLHRALKMIVDPVEPHGEMKFQWDLNAWTKSAEAFGKIVAERP
 |  | 0.0037 s⁻¹ | 35.6 µM |  |  |  |  |  | B2
